Data as given in patent EP2545075B1 (NovelMed Therapeutics, Inc., dated 2020).
Residue numbers refer to the chain shown, from its start. Each block holds one binder with its values, some of them ahead of it.

Columns and labels:
[1] = target: T1, human properdin (human, UniProt P27918 28-469); assay: cell-based or functional assay
[2] = target: T1, human properdin; assay: Competition ELISA: properdin (50 nM) plus antibody on C3b-coated wells
[3] = target: T1, human properdin; assay: Properdin ELISA
[4] = target: T1, human properdin; assay: Properdin binding assay (Fig. 27)

T1 sequence (P27918 28-469 limits assumed): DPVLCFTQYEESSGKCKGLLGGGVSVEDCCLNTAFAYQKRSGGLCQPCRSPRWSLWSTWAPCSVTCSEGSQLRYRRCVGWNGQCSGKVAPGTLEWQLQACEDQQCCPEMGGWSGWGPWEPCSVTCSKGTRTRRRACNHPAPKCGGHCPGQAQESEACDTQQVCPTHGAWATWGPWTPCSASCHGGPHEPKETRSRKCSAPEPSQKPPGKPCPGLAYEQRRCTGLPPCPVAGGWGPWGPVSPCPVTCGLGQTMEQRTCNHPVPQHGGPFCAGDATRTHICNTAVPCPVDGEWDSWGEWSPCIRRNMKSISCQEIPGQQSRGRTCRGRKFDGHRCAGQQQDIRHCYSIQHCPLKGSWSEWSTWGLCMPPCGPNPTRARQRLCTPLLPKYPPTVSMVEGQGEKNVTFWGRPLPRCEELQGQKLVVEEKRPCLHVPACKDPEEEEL

IC50 of inhibition in erythrocyte lysis assay using rabbit erythrocytes [1]: 20 to 30 nM
B1: NM9401-IgG (antibody, V domains shown)
VH: QVQLQQSAPELARPGASVKMSCTASGYIFTNYPIHWVKQRPGQGLEWIGFIDPGGGYDEPDERFRDRATLTADKSSSTAYMQLSSLTSEDSAIYYCARRGGGYYLDYWGQGTTLTVSS
VL: DIQMTQTTSSLSASLGDRVTISCRASQDISFFLNWYQQKPDGTVKLLIYYTSRYHSGVPSRFSGSGSGTDFSLTINNLEQEDFATYFCQHGNTLPWTFGGGTKLEIK
modifications: Biotinylated in Example 5 (site not stated).

IC50 [2]: 29 nM
molar ratio of antibody to properdin [2]: 0.5
B2: NM9401-F(ab')2 (other)
VH: B1 VH
VL: B1 VL
modifications: F(ab')2 has two identical arms joined by hinge disulfides. The letters give one arm's variable domains.
notes: F(ab')2 fragment of the murine antibody NM9401; also called anti-properdin F(ab')2

IC50 [2]: 72 nM
molar ratio of antibody to properdin [2]: 1.2
B3: NM9401-Fab (Fab, V domains shown)
VH: B1 VH
VL: B1 VL
notes: Fab fragment of the murine antibody NM9401; also called anti-properdin Fab

Kd [3]: ~0.054 nM
IC50 of inhibition in erythrocyte lysis assay using rabbit erythrocytes [1]: 20 to 30 nM
B4: BAP010_1 (antibody, IgG1, V domains shown)
VH: B1 VH
VL: B1 VL
notes: Chimeric full-length IgG1/kappa carrying the variable domains of NM9401, expressed in CHO-S cells; also called chimeric anti-properdin monoclonal antibody; recombinant antibody BAP010_1

binding result [4]: binds
B5: BAP010hum02 (antibody, human IgG1, V domains shown)
VH: QVQLQESGPGLVKPSQTLSLTCTVSGYIFTNYPIHWVRQAPGKGLEWVSFIDPGGGYDEPDERFRDRVTISVDTSKNQFSLKLSSVTAADTAVYYCARRGGGYYLDYWGQG
VL: EIVLTQSPATLSLSPGERATLSCRASQDISFFLNWFQQRPGQSPRRLIYYTSRYHSGIPPRFSGSGYGTDFTLTINNIESEDAAYYFCQHGNTLPWTFGQG
notes: Humanized clone; The variable domains were cloned into the mammalian expression vector used for human IgG1/kappa; also called BAP010hum02_HC

binding result [4]: binds
B6: BAP010hum03 (antibody, human IgG1, V domains shown)
VH: EVQLVQSGAEVKKPGESLRISCKGSGYIFTNYPIHWIRQSPSRGLEWLGFIDPGGGYDEPDERFRDRVTISADKSISTAYLQWSSLKASDTAMYYCARRGGGYYLDYWGQG
VL: DIQMTQSPSSLSASVGDRVTITCRASQDISFFLNWYQQKPGKAPKLLIYYTSRYHSGVPSRFSGSGSGTEFTLTISSLQSEDFAVYYCQHGNTLPWTFGQG
notes: Humanized clone; The variable domains were cloned into the mammalian expression vector used for human IgG1/kappa; also called BAP010hum03_HC

binding result [4]: binds
B7: BAP010hum10 (antibody, human IgG1, V domains shown)
VH: QVQLQESGPGLVKPSQTLSLTCTVSGYIFTNYPIHWVRQATGQGLEWMGFIDPGGGYDEPDERFRDRVTITADKSTSTAYMELSSLRSEDTAVYYCARRGGGYYLDYWGQG
VL: B6 VL with V58I, S60P, S67Y, L73F, Q79E, S80A, F83A, V85T
notes: Humanized clone; The variable domains were cloned into the mammalian expression vector used for human IgG1/kappa; also called BAP010hum10_HC
